Consider 167 variants from the RNAGym collection of RNA variant scans (doi:10.7554/elife.90254).

To fix the notation:
B1: LINE1-full (parent)
chain: UACGUAGGUGGUUUUCCCCUGAUAGUGCUAAGGGGGCCUGGAAGUUUGGACUGGGCAGAGCUCAACACAGCGUGGCAAAGUGGCUGUGGCUAGACUGCCUCUCUGGAUUCCUCGUCACUCAGCAGGGCAUCUCUGAGAGAAAUGCC

Variants of B1 are the subject of this data set. The data set is described as follows: self-cleavage, relative activity (ratio to wild type); higher = more cleavage; in vitro, sequencing; the parent is a self-cleaving ribozyme.
Regarding U45G A121U, the self-cleavage was 1.82. On to U45C U46C, for which the self-cleavage was 1.84. For the variant U45C U46G, the self-cleavage was found to be 1.37. In the case of U45C U46A it was 0.74; in that of U45C U112G, 1.31; in that of U45A U109C, 1.4.

With U45G U73A, the self-cleavage came to 1.49. In the case of G44A U100A it was 0.85. In the case of A43G G144A it was 1.39; in that of A43U U81C, 1.26; in that of A43G A140U, 1.19. In the case of A43C A77U, the self-cleavage turned out to be 1.39.

In the case of U45C A117G, the self-cleavage came to 0. Under A43U U112C stands 1.48. In the case of U45A A138U it was 1.31. On to U45A A138G, for which the self-cleavage stood at 1.32. In the case of U45C C120G it was 2.05; in that of A43U U96C, 0.1.

As for A43G C76U, the self-cleavage came to 1.66.

As for U45A U112A, the self-cleavage amounted to 1.21. As for A43G G126A, the self-cleavage was 1.16.

As for U45A G74U, the self-cleavage is 1.59.

Regarding U45C U132C, the self-cleavage is 1.51.

Turning to U45C U132A, the self-cleavage stood at 1.96. Regarding G44C U91C, the self-cleavage was 0.14. A43G A117C: the self-cleavage came out at 1.85. As for A43G A94G, the self-cleavage is 0.36. Regarding U45G U109C, the self-cleavage turned out to be 0.66. In the case of U45C U102C it was 1.55; in that of U45G C68U, 0.12; in that of U45C G54A, 0.43. Regarding A43U A140G, the self-cleavage turned out to be 1.02. A43U A140U: the self-cleavage was determined as 1.49. On to A43U A140C, for which the self-cleavage is 1.58. In the case of U45G A57U, the self-cleavage came out at 0.18.

Regarding U45G A129U, the self-cleavage is 0.67.

Regarding A43C A136U, the self-cleavage was 1.64. In the case of A43G G75A it was 1.06; in that of U45C A79G, 1.15; in that of U45C A79U, 1.92.

With A42U U112A, the self-cleavage amounted to 1.15. Regarding A42U U112C, the self-cleavage amounted to 1.08. Under A43G U62C stands 0.1; under A43G U112C, 1.2; under A43G U112A, 1.4. U45C A129G: the self-cleavage was 1.4. In the case of U45C A129U it was 1.03; in that of U45C C128U, 1.32. In the case of U45G G97A it was 0.07; in that of U45A A59C, 1.01. In the case of U45A A59G, the self-cleavage came out at 0.05. In the case of U45A A59U it was 0.6; in that of A43G C128U, 0.79.

Regarding A43U G49A, the self-cleavage was 1.34. As to U45C A136G, the self-cleavage is 1.5. Under U45C A136U stands 1.49; under A43G U96A, 0.07. Under U45C A67G stands 1.08. In the case of A43G U109A it was 1.46; in that of A43G U109C, 1.92; in that of A43U A69G, 0.59. In the case of U45C C84U, the self-cleavage was determined as 0.04. Regarding U45C C84A, the self-cleavage is 0.09. On to U45C G74U, for which the self-cleavage was found to be 1.35. Regarding G44A U96C, the self-cleavage is 0.13.

Consider U45G G106C, for which the self-cleavage was determined as 0.92. In the case of U45G G106U it was 0.64. Under A43C G97A stands 0.09; under U45C A69U, 0.03; under U45C A69G, 0.31. In the case of U45A A92C it was 0.14; in that of U45G G49A, 1.25. Consider A43G G97A, for which the self-cleavage was 0.04. In the case of U45G A77U it was 1.15; in that of U45A C99U, 0.59; in that of U45G C120U, 1.49. Under U45A U87C stands 0.24; under U45A U130C, 1.86; under A43C U100A, 1.41. Under A42U U109A stands 1.39; under U45C G126U, 1.34; under U45C U96A, 0.07.

Regarding G44U U130A, the self-cleavage was found to be 1.99. With A43C C113A, the self-cleavage was determined as 1.1. In the case of U45C G82A it was 1.86; in that of A43G A67U, 0.06; in that of U45C G53A, 1.64.

As for U45A A140G, the self-cleavage stood at 1.32. Consider U45C U109A, for which the self-cleavage amounted to 1.5. Under A43G U134A stands 0.89; under A43G G106A, 1.36; under U45C C90U, 0.08. As for A43U U109C, the self-cleavage was 1.32. Under A43U U109A stands 1.38. G44U A78G: the self-cleavage was determined as 1.68. Consider A43U U130C, for which the self-cleavage is 2.34. Under A43U U130A stands 1.67; under U45G A107G, 0. Under A43C U81A stands 1.77; under G44C A64G, 0.24. For the variant U45G U87A, the self-cleavage is 0.07. In the case of A42U U102G it was 0.09. In the case of A42U U102C it was 0.89. In the case of A42U U143C it was 0.94; in that of A43U U62C, 0.06.

On to A43C A94G, for which the self-cleavage turned out to be 0.66.

With A43G C113U, the self-cleavage stood at 1.12.

On to U45C U52C, for which the self-cleavage was found to be 0.95. A43G C103U: the self-cleavage is 1.25. In the case of A43U A142G it was 1.24; in that of U45G U62C, 0.02; in that of U45A U102A, 1.36. U45A U102G: the self-cleavage stood at 0.

With U45A U102C, the self-cleavage worked out at 1.45.

In the case of A43G A92U, the self-cleavage is 0.92. In the case of A43U G135U it was 1.43; in that of U45C G127A, 0.55. Regarding U45C G93U, the self-cleavage turned out to be 0.03. Under U45C U85A stands 0.12. For U45C U85G, the self-cleavage came out at 0.26.

With U45A U73A, the self-cleavage amounted to 1.91. Under U45A U73C stands 1.32; under A43U A138G, 0.83. In the case of A43U A138U it was 1.14; in that of U45A U119C, 1.47. Under U45A U119A stands 1.44; under U45C U104C, 1.42; under U46A A57G, 0.54.

For the variant U45C G58A, the self-cleavage was determined as 0.04. As for U45C C68U, the self-cleavage is 0.16. For the variant U45C A107U, the self-cleavage turned out to be 1.34. Under U45C C76U stands 1.89; under A42U U104C, 1.76; under U45C A64U, 0.29. For the variant U45C A77C, the self-cleavage was 1.15. Under U45C A77U stands 1.29.

Regarding U45A A124U, the self-cleavage was 1.39. A43G G82A: the self-cleavage stood at 1.31.

With U45C G89A, the self-cleavage worked out at 0.01. Turning to G44A U91C, the self-cleavage was determined as 0.65. Under G44U U115A stands 1.17.

Turning to A43G U108C, the self-cleavage came out at 1.56. Under U45G A136G stands 0.94; under A43C A78U, 2.11; under U45C U115A, 1.49. Under A43G U85C stands 0.2; under A43G U85G, 0.15; under A43G U85A, 0.1. In the case of A43G U52C it was 1.13; in that of A43G U52A, 1.43. As to G44C U112C, the self-cleavage was determined as 1.18. In the case of U45C U108A it was 1.15; in that of U45C U108C, 2.11; in that of A43G U143G, 1.42. For A43G U143C, the self-cleavage was determined as 1.36. In the case of A43U C90A it was 0.07; in that of A42U U132A, 1.02. Under A42U U100C stands 1.32; under A42U U100A, 0.62. Take U45A G72A: the self-cleavage was determined as 0.95. In the case of U45C A50U it was 1.02. Under U45C A50G stands 1; under U45G A141G, 1.32. For the variant U45A U81C, the self-cleavage amounted to 1.92. Under A43U U91C stands 0.68; under A43U A65G, 0.02; under U45A G139A, 1.33.
